These are literature values, as cited in article PMC5519506 (Molecular pharmaceutics, 2016).

Read-outs that look alike come from different tables or passages of the source.

The subject of data set [1] is EGFR^high tumor. The conditions noted are these: ref [28], cited from earlier work; for tumor:muscle ratio / tumor:blood ratio: fibronectin.
For data set [2] the following is noted: fibronectin; ref [28]; cited from earlier work.

Take fibronectin: the tumor accumulation in data set [1] (1 h, second of two values) is on record as 2.4 ± 1.0 %ID/g; in data set [1] (1 h), 3.4 ± 1.0 %ID/g. The “tumor:muscle ratio” value was 8.6 ± 3.0 in data set [1] (1 h, PET); 10 ± 4 in data set [1] (1 h, excised tissue); 4.2 ± 1.3 in data set [1] (4 h, excised tissue). The results for the “tumor:blood ratio” value in data set [1] (1 h) and in data set [1] (4 h) were 8.9 ± 4.7 and 6.4 ± 4.3, respectively. The clearance half-time in data set [2] is given as 2.1 ± 0.3 min.
